In the supplement of paper PMC7125110:
This sample holds only a part of the variants without activity.

B1: glmS ribozyme (parent)
chain: AUAAAAGCGCCAGAACUACAGAAAUGUAGUUGACGAGGAGGAGGUUUAUCGAAUUUUCGGCGGAUGCCUCCAAA

How the values were obtained:
Conditions in all cases: with glucosamine-6-phosphate
glucosamine-6-phosphate [1] = variants of: B1; assay: self-cleavage kobs at 160 uM GlcN6P; higher = faster cleavage; RNA array
Procedure, shortened: (§1)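 Tiles of sequenced MiSeq chips were imaged over ~14 h at 37 °C. On them, barcoded ribozyme variants had been transcribed in situ by E. coli RNA polymerase and were tracked via a hybridised Cy3 probe while glucosamine-6-phosphate (40 μM to 10 mM) in HEPES/KCl/Mg(OAc)2 buffer flowed in. Per-tile medians, normalised to baseline and to non-cleaving reference variants, were fit to one- or two-exponential decays for kobs, and weighted Michaelis–Menten fits gave kcat and KM.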

glucosamine-6-phosphate [2] = variants of: B1; assay: self-cleavage kobs at 2500 uM GlcN6P; higher = faster cleavage; RNA array
Procedure, shortened: as §1

glucosamine-6-phosphate [3] = variants of: B1; assay: self-cleavage kobs at 10000 uM GlcN6P; higher = faster cleavage; RNA array
Procedure, shortened: as §1

glucosamine-6-phosphate [4] = variants of: B1; assay: self-cleavage kobs at 640 uM GlcN6P; higher = faster cleavage; RNA array
Procedure, shortened: as §1

Variant	self-cleavage kobs at 160 uM GlcN6P (glucosamine-6-phosphate [1]) [s⁻¹]	self-cleavage kobs at 2500 uM GlcN6P (glucosamine-6-phosphate [2]) [s⁻¹]	self-cleavage kobs at 10000 uM GlcN6P (glucosamine-6-phosphate [3]) [s⁻¹]	self-cleavage kobs at 640 uM GlcN6P (glucosamine-6-phosphate [4]) [s⁻¹]
AUAAAAGAGCCAGAACUACAGAAAUGUAGUUGUCGAGGAGGAGGUUUAUCGAAUUUUCGGCGGAUGCCUCCAAA [C8A A33U]	< 1e-05	< 1e-05	< 1e-05	
AUAAAAUCGCCAGAACUACAGAAAUGUAGUUGACGAGGAGGAGGUUUAUCGCAUUUUCGGCGGAUGCCUCCAAA [G7U A52C]	< 1e-05		< 1e-05	< 1e-05
AUAAAAUCGACAGAACUACAGAAAUGUACUUGACGAGGAGGAGGUUUAUCGAAUUUCCGGCGGAUGCCUCCAAA [G7U C10A G29C U57C]	< 1e-05	< 1e-05		< 1e-05
AUAAAAUCGCCAGAACUACAGAAAUGUAGCUAACGAGGAGGAGGUUUAUCGAAUUUUCGGCGGAUGCCUCCAAA [G7U U30C G32A]	< 1e-05		< 1e-05	
AUAAAAGGGCAAGAACUACAGAAAUGUAGUUGACGAGGAGGAGGUUUAUCGAAUUUUCGGCGGAUGCCUCCAAA [C8G C11A]	< 1e-05	< 1e-05	< 1e-05	< 1e-05
AUAAAACCGCCAGAACUACAGAAAUGUAGUUGACGAGGAGGAGGUUUAUUUAAUUUUCGGCGGAUGCCUACAAA [G7C C50U G51U C70A]	< 1e-05	< 1e-05		
AUAAAAGAGCCAGAACUACAGAAAUGUAGUUGACGAGGAGGAGGUUUAUUGAAUCUUCGGCGGAUGCCUCCAAA [C8A C50U U55C]	< 1e-05			< 1e-05
AUAAAACCGCCAGAACUACAGAAAUGUAGUUGACGAGGAGGAGGUUUAUCGAAUUAUCGGCGGAUGCCUCCAAA [G7C U56A]	< 1e-05	< 1e-05	< 1e-05	< 1e-05
AUAAAAGAGCCAGAACUACAGAAAUGUAGUUGAUGAGGAUUAGGAUUAUCGAAUUUUCGGCUGAUGCCUCCAAA [C8A C34U G40U G41U U45A G62U]	< 1e-05			
AUAAAAUCACCAGAAUUACAGAAAUGUAAUUGACGAGGAGGAGGUUUAUCGAUUUUUCAGCGGAUACCGCCAAA [G7U G9A C16U G29A A53U G59A G66A U69G]	< 1e-05			< 1e-05
AUAAAAGGGCCAGAACUACAGAAAUGUAGUUGACGAGGAGGUGGUUUAUCGAAUUUUUGGCGGAUGCCUCCAAA [C8G A42U C58U]	< 1e-05	< 1e-05		
AUAAAAUCGCCAGAACUACAGAAAUGUAGUUGACGAGGAGUAGGUUUAUCGAGUUUUCGGCGGAUGCCUCCAAA [G7U G41U A53G]	< 1e-05	< 1e-05		
AUAAAAGAGCCAGAACUACAGAAAUGUACUUCACGAGGAGGAGGUUUAUCGAAUUUUCGGCGGAUGCCUCCAAA [C8A G29C G32C]	< 1e-05			
AUAAAACCGCCAGAACUACAGAAAUGUAGUUGAUGAGGAGGAGGUUUAUCGAAUUUUCGGCGGAUGCCUCCAAA [G7C C34U]	< 1e-05	< 1e-05	< 1e-05	< 1e-05
AUAAAAUCGCCAGAACUACAGAAAUGUAGUUGACGAGGAGGAGGUUUAUCGAAUUUUCGGCGGAUGACUCCAAA [G7U C67A]	< 1e-05			< 1e-05
